The target of the assay is TLR5 on RAW 424 (TLR5+) cells. Put plainly: cell-based or functional assay.

As for “P. aeruginosa type A flagellin (strain PAK), recombinant full-length (from UniProt P21184 2-394) (ligand)”, the TNF-α production by RAW 424 (TLR5+) cells, half-maximal stimulation was found to be 16 pM.

For “P. aeruginosa type B flagellin (strain PAO1), recombinant full-length (from UniProt P72151 1-488) (ligand)”, the TNF-α production by RAW 424 (TLR5+) cells, half-maximal stimulation came out at 4e+07 pM.

These data come from patent US20120064106A1.
